Changes are numbered by the printed parent chain. Each block holds one binder with its values, some of them ahead of it.
What was measured:
[1] = molecular target: T1, B7-H3, native protein on the cell surface of A498 and SK-MES-1 cells (UniProt Q5ZPR3 29-534, limits assumed); assay: flow cytometry (FACS) on SK-MES-1 cells
T1 construct: whole, on cells; The cell line is named under assay for each row
T1 sequence (looked up): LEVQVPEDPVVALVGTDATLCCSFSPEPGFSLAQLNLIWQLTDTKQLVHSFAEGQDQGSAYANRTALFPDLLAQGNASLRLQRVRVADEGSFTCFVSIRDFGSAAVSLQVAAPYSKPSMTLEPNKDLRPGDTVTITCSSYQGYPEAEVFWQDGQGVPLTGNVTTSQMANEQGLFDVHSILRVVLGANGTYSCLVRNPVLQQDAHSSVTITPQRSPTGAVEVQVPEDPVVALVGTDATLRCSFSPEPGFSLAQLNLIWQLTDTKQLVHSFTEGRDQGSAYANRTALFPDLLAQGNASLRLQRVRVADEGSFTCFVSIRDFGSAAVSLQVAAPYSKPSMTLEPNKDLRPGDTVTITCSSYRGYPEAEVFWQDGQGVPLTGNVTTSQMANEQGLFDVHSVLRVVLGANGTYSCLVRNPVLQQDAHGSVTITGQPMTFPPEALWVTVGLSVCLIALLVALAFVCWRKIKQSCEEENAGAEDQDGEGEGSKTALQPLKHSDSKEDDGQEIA
Procedure: (§1) The recombinantly expressed antibodies were used to assess binding activity to B7-H3 by conventional ELISA according to the known art. Recombinant human B7-H3 and cyno B7-H3 were coated onto ELISA plates to detect binding at serially diluted concentrations of the anti-B7-H3 antibody preparations. The binding affinity of select anti-B7-H3 antibodies were measured on a surface plasmon resonance (SPR) instrument, such as a Biacore T200™, against human B7-H3 (table 3) and cyno B7-H3 (table 4). Cell lines expressing B7-H3, A498 and SK-MES-1, were used to assess binding by anti-B7-H3 antibodies on the native protein on the cell surface by flow cytometry according to the known art. […] In addition, the antibody-dependent cellular cytotoxicity (ADCC) activity of select anti-B7-H3 antibodies were assessed using an engineered surrogate effector cell line, kit reagents, and a luminometer (Promega, Madison, Wis.) on A498 and SK-MES-1 as target cells in table 2 under the heading “ADCC (reporter) and FIGS. 1C and 1D. Finally, specificity of each of the antibodies examined thus far were assessed by interacting with proteins from the B7 family (human B7-1, B7-2, PD-L2, PD-L1, B7-H2, B7-H4, B7-H5, B7-H6, B7-H7) against B7-H3 using ELISA. The data were plotted for each antibody on FIGS. 3A through 3E.

Recombinant cyno B7-H3 [2] = molecular target: Recombinant cyno B7-H3 (cyno); assay: ELISA, cyno B7-H3 coated on plate
Procedure: as §1

Recombinant human B7-H3 [3] = molecular target: T2, Recombinant human B7-H3 (human, UniProt Q5ZPR3 29-466, limits assumed); assay: ELISA, recombinant human B7-H3 coated on plate
T2 construct: also called CD276; B7RP-2
T2 sequence: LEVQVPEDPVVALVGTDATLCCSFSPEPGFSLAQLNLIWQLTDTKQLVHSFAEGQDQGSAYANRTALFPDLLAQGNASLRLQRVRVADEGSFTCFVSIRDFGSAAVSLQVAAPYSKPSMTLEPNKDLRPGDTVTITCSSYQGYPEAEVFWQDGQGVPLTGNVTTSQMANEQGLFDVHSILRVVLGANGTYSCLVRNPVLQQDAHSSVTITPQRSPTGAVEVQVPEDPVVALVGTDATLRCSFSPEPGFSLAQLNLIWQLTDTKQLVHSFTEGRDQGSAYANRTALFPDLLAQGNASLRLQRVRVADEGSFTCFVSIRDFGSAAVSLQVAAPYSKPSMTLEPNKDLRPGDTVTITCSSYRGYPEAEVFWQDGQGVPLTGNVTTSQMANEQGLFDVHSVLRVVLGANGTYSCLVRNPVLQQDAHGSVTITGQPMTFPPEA
Procedure: as §1

[4] = molecular target: T1, B7-H3, native protein on the cell …; assay: flow cytometry (FACS) on A498 cells
Procedure: as §1

[5] = molecular target: T1, B7-H3, native protein on the cell …; assay: cell-based or functional assay
Recombinant human B7-H3 [6] = molecular target: T2, Recombinant human B7-H3; assay: SPR (such as Biacore T200), against human B7-H3
Procedure: as §1

Recombinant cyno B7-H3 [7] = molecular target: Recombinant cyno B7-H3 (cyno); assay: SPR (such as Biacore T200), against cyno B7-H3
Procedure: as §1

B4: SCT-Da192 (antibody, V domains shown)
VH: EVQLQQSGPELVKPGASVKISCKTSGYTFTEYTMHWVKQSHGKSLEWIGVINPNNGGTTYNQKFKGKATLTVDKSSSTAYMELRSLTSEDSAVYYCARPHSLLRLRREFDYWGQGTTLTVSS
VL: QIVLTQSPALMSASPGEKVTMTCSASSSVSYMYWYQQKPRSSPKPWIYLTSNLASGVPARFSGSGSGTSYSLTISSMEAEDAATYYCQQWSSNPLTFGAGTKLELK
EC50 [1]: 2.32 nM
Kd (Recombinant cyno B7-H3 [7]): 1.64 nM
koff (Recombinant cyno B7-H3 [7]): 0.000505 s⁻¹
kon (Recombinant cyno B7-H3 [7]): 307000 M⁻¹ s⁻¹
EC50 (Recombinant cyno B7-H3 [2]): 0.0176 nM
EC50 (Recombinant human B7-H3 [3]): 0.0109 nM
EC50 [4]: 2.62 nM
ADCC (reporter) EC50, A498 target cells [5]: 1.1 nM
ADCC (reporter) EC50, SK-MES-1 target cells [5]: 0.9 nM
Kd (Recombinant human B7-H3 [6]): 23.8 nM
koff (Recombinant human B7-H3 [6]): 0.00203 s⁻¹
kon (Recombinant human B7-H3 [6]): 85100 M⁻¹ s⁻¹

B5: SCT-Da182 (antibody, V domains shown)
VH: EVQLQQSGPELVKPGASMKISCKVSGFSFTGYTMNWVKQSHGKNLEWIGLINTYNGGTFYNQKFKAKATLTVDKSSSTAHMELLSLTSEDSAVYYCARSPGRYSMDYWGQGTSVTVSS
VL: DIVLTQSPASLAVSLGQRATISCKASQSVDYNGYSYLNWYQQKPGQPPKLLIYPASNLESGIPARFSGSGSGTDFTLNIHPVEEEDAATYYCQQSKEDPYTFGGGTKLEIK
EC50 [1]: 4.09 nM
Kd (Recombinant cyno B7-H3 [7]): 1.22 nM
koff (Recombinant cyno B7-H3 [7]): 0.000283 s⁻¹
kon (Recombinant cyno B7-H3 [7]): 232000 M⁻¹ s⁻¹
EC50 (Recombinant cyno B7-H3 [2]): 0.00882 nM
EC50 (Recombinant human B7-H3 [3]): 0.0105 nM
EC50 [4]: 3.7 nM
ADCC (reporter) EC50, A498 target cells [5]: 4.5 nM
ADCC (reporter) EC50, SK-MES-1 target cells [5]: 4.6 nM
Kd (Recombinant human B7-H3 [6]): 10.9 nM
koff (Recombinant human B7-H3 [6]): 0.00101 s⁻¹
kon (Recombinant human B7-H3 [6]): 92700 M⁻¹ s⁻¹

These reach a lower EC50 [1]. Values come first.

EC50 [1]: 1.94 nM
EC50 (Recombinant cyno B7-H3 [2]): 3.05 nM
EC50 (Recombinant human B7-H3 [3]): 0.00833 nM
EC50 [4]: 3.29 nM
ADCC (reporter) EC50, A498 target cells [5]: 23.3 nM
ADCC (reporter) EC50, SK-MES-1 target cells [5]: 32.8 nM
Kd (Recombinant human B7-H3 [6]): 380 nM
koff (Recombinant human B7-H3 [6]): 0.0512 s⁻¹
kon (Recombinant human B7-H3 [6]): 135000 M⁻¹ s⁻¹
B1: SCT-Da333 (antibody, V domains shown)
VH: QVQLQQSGPELVRPGVSVKISCKGSGYTFTDYAVHWVKQSHAKSLEWIGVINTYSGNTYYNLHFKGKATMTVDKSSSTAYMELARLTSEDSAIYYCARRRGSHRDAYFDYWGQGTTLTVSS
VL: DIVMTQSHKFMSTSVGDRVSITCRASQDVSTAVAWYQQKPGQSPKLLIYSASYRYTGVPDRFTVSGSGTDFTFTISSVQAEDLAVYYCQQHYSTPWTFGGGTKLEIK

EC50 [1]: 1.46 nM
Kd (Recombinant cyno B7-H3 [7]): 0.398 nM
koff (Recombinant cyno B7-H3 [7]): 0.000361 s⁻¹
kon (Recombinant cyno B7-H3 [7]): 905000 M⁻¹ s⁻¹
EC50 (Recombinant cyno B7-H3 [2]): 0.0237 nM
EC50 (Recombinant human B7-H3 [3]): 0.0226 nM
EC50 [4]: 1.43 nM
ADCC (reporter) EC50, A498 target cells [5]: 2.4 nM
ADCC (reporter) EC50, SK-MES-1 target cells [5]: 2.4 nM
Kd (Recombinant human B7-H3 [6]): 2.75 nM
koff (Recombinant human B7-H3 [6]): 0.0011 s⁻¹
kon (Recombinant human B7-H3 [6]): 402000 M⁻¹ s⁻¹
B2: SCT-Da250 (antibody, V domains shown)
VH: QGQMQQSGAELVKPGASVRLSCKTSGFTFSSFYISWLKQKPGQSLEWIAWIYAGPGYTSYNQKFTGKAQLTVDTSSSTAYMQFSSLTTEDSAIYYCARHVGRQRGYFDVWGAGTTVTVSS
VL: B1 VL with R24K, R61H

EC50 [1]: 1.49 nM
Kd (Recombinant cyno B7-H3 [7]): 0.503 nM
koff (Recombinant cyno B7-H3 [7]): 0.000368 s⁻¹
kon (Recombinant cyno B7-H3 [7]): 731000 M⁻¹ s⁻¹
EC50 (Recombinant cyno B7-H3 [2]): 0.0114 nM
EC50 (Recombinant human B7-H3 [3]): 0.0076 nM
EC50 [4]: 1.6 nM
ADCC (reporter) EC50, A498 target cells [5]: 3.6 nM
ADCC (reporter) EC50, SK-MES-1 target cells [5]: 4.2 nM
Kd (Recombinant human B7-H3 [6]): 6.41 nM
koff (Recombinant human B7-H3 [6]): 0.00234 s⁻¹
kon (Recombinant human B7-H3 [6]): 366000 M⁻¹ s⁻¹
B3: SCT-Da148 (antibody, V domains shown)
VH: EVQLQQSGAELVKPGASVKLSCTASGVNIKDTYIHWVKQRPEQGLEWIGRIDPANGNRKYDPKFQGKATITADSSSNTAYLQLSSLTSEDTAVYYCARDGYYAPGYWGQGTTLTVSS
VL: DIVMTQSQKFMSTSVGDRVSVTCKASQNVGTDVAWYQQKPGQSPKLLIYSASYRFSGVPDRFTGSGSGTDFSLAISNVQSEDLAEYFCQQYNSYPYTFGGGAKLEIK

Source: US20220235134A1 (SINGLE CELL TECHNOLOGY, published 2022)
